This is an account of results in the Immune Epitope Database (IEDB).

Among the targets are HLA-A*03:01; HLA-A*11:01; HLA-A*31:01; HLA-A*33:01; HLA-A*68:01.
Assay in all cases: IEDB peptide-MHC binding, purified MHC/competitive/radioactivity; filed as Kd, often an IC50 or EC50 that approximates it; ≥ and ≤ were set here for values at or beyond the usual limits of such assays
The mark [1] stands for this setting: source organism: SARS coronavirus Tor2.
Where [2] appears, read: source organism: Vaccinia virus WR.
Where [3] appears, read: source organism: Triticum aestivum.
Where [4] appears, read: source organism: Lymphocytic choriomeningitis virus (strain Armstrong).
The mark [5] stands for this setting: source organism: Vaccinia virus Copenhagen.

As a reminder, the Kd is the concentration at which binding is half-saturated. Regarding VVENPTIQK, the Kd is 328 nM in the experiment with HLA-A*03:01 (setting [1]); 7.63 nM in the experiment with HLA-A*11:01 (setting [1]); 18700 nM with HLA-A*31:01 (setting [1]); not below 64100 nM in the experiment with HLA-A*33:01 (setting [1]); 407 nM with HLA-A*68:01 (setting [1]).
Consider LLSIVVDINK, for which the dissociation constant (Kd) was 485 nM in the experiment with HLA-A*03:01 (setting [2]); 35.9 nM with HLA-A*11:01 (setting [2]); 1090 nM in the experiment with HLA-A*31:01 (setting [2]); 10500 nM with HLA-A*33:01 (setting [2]); 110 nM with HLA-A*68:01 (setting [2]).
As for LLNKEMYLK, the Kd in the experiment with HLA-A*03:01 (setting [1]) is 10.7 nM; with HLA-A*11:01 (setting [1]) it was 16.9 nM; in the experiment with HLA-A*31:01 (setting [1]) it was 155 nM; with HLA-A*33:01 (setting [1]), 6500 nM; with HLA-A*68:01 (setting [1]) it was 1100 nM.
Taken in the same sequence, the figures for GVVFLHVTY were 8170 nM, 3400 nM, 15300 nM, not below 77700 nM and not below 60600 nM.
On to KATTQIAPK, for which the Kd with HLA-A*03:01 (setting [2]) was 46 nM; with HLA-A*11:01 (setting [2]), 4.81 nM; with HLA-A*31:01 (setting [2]), 86.2 nM; with HLA-A*33:01 (setting [2]) it was not below 39100 nM; with HLA-A*68:01 (setting [2]) it was 7050 nM.
Taken in the same sequence, the figures for SIRPRVTKQY were 884 nM, 9160 nM, 6270 nM, not below 70000 nM and 8010 nM.
Consider FFAYVMNIER, for which the Kd was 1120 nM with HLA-A*03:01 (setting [2]); 10800 nM in the experiment with HLA-A*11:01 (setting [2]); 104 nM with HLA-A*31:01 (setting [2]); 15 nM with HLA-A*33:01 (setting [2]); 3.22 nM with HLA-A*68:01 (setting [2]).
Turning to SVLNDILSR, the Kd was determined as 7790 nM with HLA-A*03:01 (setting [1]); 148 nM with HLA-A*11:01 (setting [1]); 1140 nM in the experiment with HLA-A*31:01 (setting [1]); 5660 nM in the experiment with HLA-A*33:01 (setting [1]); 4270 nM with HLA-A*68:01 (setting [1]).
Regarding TSEKYSKGY, the Kd with HLA-A*03:01 (setting [2]) was not below 78000 nM; with HLA-A*11:01 (setting [2]), not below 77900 nM; in the experiment with HLA-A*31:01 (setting [2]), not below 77900 nM; with HLA-A*33:01 (setting [2]), not below 77700 nM; with HLA-A*68:01 (setting [2]) it was not below 77700 nM.
Regarding QMREIITGNK, the Kd was 15.8 nM in the experiment with HLA-A*03:01 (setting [2]); 1710 nM in the experiment with HLA-A*11:01 (setting [2]); 1950 nM with HLA-A*31:01 (setting [2]); not below 47500 nM with HLA-A*33:01 (setting [2]); 12400 nM with HLA-A*68:01 (setting [2]).
YSSMTSDSK: the Kd in the experiment with HLA-A*03:01 (setting [2]) is 1980 nM; with HLA-A*11:01 (setting [2]) it was 10.5 nM; with HLA-A*31:01 (setting [2]) it was 4860 nM; with HLA-A*33:01 (setting [2]) it was not below 21400 nM; with HLA-A*68:01 (setting [2]), 2.38 nM.
On the same counts, the results for LSDIISAEK are 946 nM, 34.1 nM, 1800 nM, 12600 nM and 185 nM.
On to AIILHQQQK, for which the Kd with HLA-A*03:01 (setting [3]) was 104 nM; in the experiment with HLA-A*11:01 (setting [3]), 38.2 nM; with HLA-A*31:01 (setting [3]), not below 20600 nM; in the experiment with HLA-A*33:01 (setting [3]), not below 77700 nM; with HLA-A*68:01 (setting [3]), 941 nM.
For the sequence VFLILCFTIK, the Kd with HLA-A*03:01 (setting [1]) turned out to be 168 nM; with HLA-A*11:01 (setting [1]) it was 371 nM; in the experiment with HLA-A*31:01 (setting [1]), 613 nM; with HLA-A*33:01 (setting [1]), 4070 nM; with HLA-A*68:01 (setting [1]) it was 965 nM.
LLAISAVYFK: the Kd was 3.35 nM with HLA-A*03:01 (setting [2]); 11.9 nM with HLA-A*11:01 (setting [2]); 379 nM with HLA-A*31:01 (setting [2]); 1030 nM with HLA-A*33:01 (setting [2]); 2.52 nM in the experiment with HLA-A*68:01 (setting [2]).
Turning to PLHILASNK, the equilibrium dissociation constant (Kd) with HLA-A*03:01 (setting [2]) was 161 nM; in the experiment with HLA-A*11:01 (setting [2]), 6420 nM; in the experiment with HLA-A*31:01 (setting [2]), 12500 nM; with HLA-A*33:01 (setting [2]) it was not below 77700 nM; with HLA-A*68:01 (setting [2]), 11400 nM.
For CAAYYFMKFR, the Kd is 209 nM in the experiment with HLA-A*03:01 (setting [1]); 65 nM in the experiment with HLA-A*11:01 (setting [1]); 10.9 nM with HLA-A*31:01 (setting [1]); 141 nM with HLA-A*33:01 (setting [1]); 70.5 nM with HLA-A*68:01 (setting [1]).
As for RVAVNKSNK, the Kd is 6.83 nM with HLA-A*03:01 (setting [2]); 11.5 nM with HLA-A*11:01 (setting [2]); 57.7 nM with HLA-A*31:01 (setting [2]); not below 52000 nM with HLA-A*33:01 (setting [2]); 147 nM with HLA-A*68:01 (setting [2]).
For ITAKETLYR, the Kd amounted to 131 nM in the experiment with HLA-A*03:01 (setting [1]); 18.3 nM with HLA-A*11:01 (setting [1]); 193 nM with HLA-A*31:01 (setting [1]); 1080 nM with HLA-A*33:01 (setting [1]); 15.5 nM with HLA-A*68:01 (setting [1]).
As to KSLNRQTVSR, the Kd with HLA-A*03:01 (setting [2]) came to 87.2 nM; in the experiment with HLA-A*11:01 (setting [2]), 187 nM; with HLA-A*31:01 (setting [2]), 7.78 nM; with HLA-A*33:01 (setting [2]) it was 1320 nM; with HLA-A*68:01 (setting [2]), 7000 nM.
Take YVMNIERQDY: the Kd with HLA-A*03:01 (setting [2]) was not below 70100 nM; with HLA-A*11:01 (setting [2]) it was 19000 nM; in the experiment with HLA-A*31:01 (setting [2]) it was 10200 nM; with HLA-A*33:01 (setting [2]), not below 23300 nM; with HLA-A*68:01 (setting [2]), 189 nM.
As to KSFNHVLKRK, the Kd was 1.01 nM with HLA-A*03:01 (setting [1]); 6.18 nM with HLA-A*11:01 (setting [1]); 67.9 nM with HLA-A*31:01 (setting [1]); not below 70000 nM with HLA-A*33:01 (setting [1]); 1570 nM in the experiment with HLA-A*68:01 (setting [1]).
Regarding RCHDHYLCR, the Kd is not below 22300 nM with HLA-A*03:01 (setting [4]); not below 25700 nM with HLA-A*11:01 (setting [4]); 907 nM with HLA-A*31:01 (setting [4]); not below 35600 nM with HLA-A*33:01 (setting [4]); not below 10000 nM with HLA-A*68:01 (setting [4]).
On to TLSERISSK, for which the Kd with HLA-A*03:01 (setting [2]) came out at 6.16 nM; with HLA-A*11:01 (setting [2]) it was 2.91 nM; with HLA-A*31:01 (setting [2]), 2310 nM; with HLA-A*33:01 (setting [2]), 9910 nM; in the experiment with HLA-A*68:01 (setting [2]), 48.3 nM.
On the same counts, the results for FSGKEPISDY are not below 70100 nM, not below 52400 nM, not below 70000 nM, not below 70000 nM and not below 67000 nM.
As for DLKWARFPK, the Kd with HLA-A*03:01 (setting [1]) worked out at 5640 nM; with HLA-A*11:01 (setting [1]), 714 nM; with HLA-A*31:01 (setting [1]), 391 nM; with HLA-A*33:01 (setting [1]), 20 nM; with HLA-A*68:01 (setting [1]), 51.5 nM.
Regarding DAYNIADAAR, the Kd with HLA-A*03:01 (setting [2]) is 16000 nM; with HLA-A*11:01 (setting [2]), 613 nM; with HLA-A*31:01 (setting [2]), 19.2 nM; in the experiment with HLA-A*33:01 (setting [2]), 0.812 nM; in the experiment with HLA-A*68:01 (setting [2]), 1.28 nM.
For the sequence SSYIDFENTK, the Kd in the experiment with HLA-A*03:01 (setting [2]) came to 629 nM; in the experiment with HLA-A*11:01 (setting [2]) it was 0.158 nM; in the experiment with HLA-A*31:01 (setting [2]), 137 nM; with HLA-A*33:01 (setting [2]) it was 392 nM; with HLA-A*68:01 (setting [2]), 23.5 nM.
In the case of KIPIYSHTER, the Kd in the experiment with HLA-A*03:01 (setting [2]) turned out to be 1060 nM; in the experiment with HLA-A*11:01 (setting [2]), 1140 nM; in the experiment with HLA-A*31:01 (setting [2]), 25.8 nM; with HLA-A*33:01 (setting [2]), 1190 nM; with HLA-A*68:01 (setting [2]) it was 1530 nM.
As for NTFPNITLK, the Kd with HLA-A*03:01 (setting [5]) amounted to 53.1 nM; with HLA-A*11:01 (setting [5]) it was 9.39 nM; in the experiment with HLA-A*31:01 (setting [5]), 595 nM; with HLA-A*33:01 (setting [5]), 164 nM; with HLA-A*68:01 (setting [5]), 0.779 nM.
DITFLRPVLK: the Kd in the experiment with HLA-A*03:01 (setting [2]) was found to be 157 nM; with HLA-A*11:01 (setting [2]) it was 72.1 nM; in the experiment with HLA-A*31:01 (setting [2]) it was 259 nM; with HLA-A*33:01 (setting [2]), 5840 nM; with HLA-A*68:01 (setting [2]), 42.3 nM.
Turning to KLMEEYLRR, the Kd is 11.4 nM with HLA-A*03:01 (setting [2]); 9.83 nM in the experiment with HLA-A*11:01 (setting [2]); 5.59 nM with HLA-A*31:01 (setting [2]); not below 22000 nM with HLA-A*33:01 (setting [2]); 1910 nM with HLA-A*68:01 (setting [2]).
For FADNDRQDIY, the dissociation constant (Kd) was not below 70100 nM in the experiment with HLA-A*03:01 (setting [2]); not below 46000 nM with HLA-A*11:01 (setting [2]); not below 70000 nM in the experiment with HLA-A*31:01 (setting [2]); not below 70000 nM with HLA-A*33:01 (setting [2]); 1250 nM with HLA-A*68:01 (setting [2]).
As to IINFTISMR, the Kd with HLA-A*03:01 (setting [2]) is 41.3 nM; with HLA-A*11:01 (setting [2]), 49.2 nM; with HLA-A*31:01 (setting [2]), 2.23 nM; with HLA-A*33:01 (setting [2]), 98.1 nM; in the experiment with HLA-A*68:01 (setting [2]), 3.79 nM.
Taken in the same sequence, the figures for LACTDPSER were not below 55100 nM, 19900 nM, 572 nM, 2310 nM and 173 nM.
On the same counts, the results for FLELKRGIYK are 4.84 nM, 1.19 nM, 120 nM, 945 nM and 89.1 nM.
On the same counts, the results for TSVSAKQLR are not below 78000 nM, 2810 nM, 2600 nM, 9110 nM and 11.2 nM.
